According to patent publication US20070031331A1 (Genentech, published 2007):
One block for each binder: values may come before it.

Columns and labels:
human CD20 [1] = biological target: T1, human CD20 (human, UniProt P11836 1-297); experiment: Scatchard analysis, cold antibody against 125I-2H7.v16 on WIL2-S cells, n=4
T1 construct: whole, on cells; also called CD20 antigen; Bp35
T1 sequence (looked up): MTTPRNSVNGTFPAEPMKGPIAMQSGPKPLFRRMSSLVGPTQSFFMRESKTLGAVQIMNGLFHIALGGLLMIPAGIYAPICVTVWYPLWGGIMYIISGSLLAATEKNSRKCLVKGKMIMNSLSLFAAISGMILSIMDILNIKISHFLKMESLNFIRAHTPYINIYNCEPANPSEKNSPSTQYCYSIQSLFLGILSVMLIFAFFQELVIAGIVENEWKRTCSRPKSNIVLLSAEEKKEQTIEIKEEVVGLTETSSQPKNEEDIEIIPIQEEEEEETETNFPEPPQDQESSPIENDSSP
Description: All dilutions were performed in binding assay buffer (DMEM media containing 1% bovine serum albumin, 25 mM HEPES pH 7.2, and 0.01% sodium azide). […] WIL2-S cells (60,000 cells in 0.025 mL) were then added. The plate was sealed and incubated at room temperature for 24 hours, then centrifuged for 15 min at 3,500 RPM. The supernatant was then aspirated and the cell pellet was washed and centrifuged. The supernatant was again aspirated, and the pellets were dissolved in 1N NaOH and transferred to tubes for gamma counting.

human CD20 [2] = biological target: T1, human CD20; experiment: cell-based ELISA on WIL2-S cells; conc. 2H7.v16 / conc. variant
Description: To measure relative binding affinities to the CD20 antigen, a cell-based ELISA assay was developed. […] The cells were washed with PBS containing 1% fetal bovine serum (FBS) (assay buffer) and seeded at 250-300,000 cell/well in 96-well round bottom plates (Nunc, Roskilde, Denmark). […] The plates were buried in ice and incubated for 45 min. To remove the unbound antibody, 0.1 mL assay buffer was added to the wells. Plates were centrifuged and supernatants were removed. Cells were washed two more times with 0.2 mL assay buffer. Antibody bound to the plates was detected by adding peroxidase-conjugated goat anti-human Fc antibody (Jackson ImmunoResearch, West Grove, Pa.) to the plates. After a 45-min incubation, cells were washed as described before. TMB substrate (3,3′,5,5′-tetramethyl benzidine; Kirkegaard & Perry Laboratories, Gaithersburg, Md.) was added to the plates. The reaction was stopped by adding 1 M phosphoric acid. Titration curves were fit with a four-parameter nonlinear regression curve-fitting program ([…] ™, Synergy software, Reading, Pa.). The absorbance at the midpoint of the titration curve (mid-OD) and its corresponding concentration of the standard were determined. Then the concentration of each variant at this mid-OD was determined, and the concentration of the standard was divided by that of each variant.

Kd (human CD20 [1]): 1.22 nM
B1: 2H7.v73 (antibody, IgG1)
heavy: not shown
light: DIQMTQSPSSLSASVGDRVTITCRASSSVSYLHWYQQKPGKAPKPLIYAPSNLASGVPSRFSGSGSGTDFTLTISSLQPEDFATYYCQQWSFNPPTFGQGTKVEIKRTVAAPSVFIFPPSDEQLKSGTASVVCLLNNFYPREAKVQWKVDNALQSGNSQESVTEQDSKDSTYSLSSTLTLSKADYEKHKVYACEVTHQGLSSPVTKSFNRGEC
notes: IgG1; changes relative to 2H7.v16; also called 2H7 version 73

Kd (human CD20 [1]): 1.09 nM
B2: 2H7.v75 (antibody, IgG1)
heavy: EVQLVESGGGLVQPGGSLRLSCAASGYTFTSYNMHWVRQAPGKGLEWVGAIYPGNGDTSYNQKFKGRFTISVDKSKNTLYLQMNSLRAEDTAVYYCARVVYYSASYWYFDVWGQGTLVTVSSASTKGPSVFPLAPSSKSTSGGTAALGCLVKDYFPEPVTVSWNSGALTSGVHTFPAVLQSSGLYSLSSVVTVPSSSLGTQTYICNVNHKPSNTKVDKKVEPKSCDKTHTCPPCPAPELLGGPSVFLFPPKPKDTLMISRTPEVTCVVVDVSHEDPEVKFNWYVDGVEVHNAKTKPREEQYNATYRVVSVLTVLHQDWLNGKEYKCKVSNKALPAPIAATISKAKGQPREPQVYTLPPSREEMTKNQVSLTCLVKGFYPSDIAVEWESNGQPENNYKTTPPVLDSDGSFFLYSKLTVDKSRWQQGNVFSCSVMHEALHNHYTQKSLSLSPGK
light: B1 light
notes: IgG1; changes relative to 2H7.v16; also called 2H7 version 75

Relative binding (human CD20 [2]): 0.99 ratio
B3: 2H7.v166 (antibody, human IgG1, kappa, V domains shown)
VH: EVQLVESGGGLVQPGGSLRLSCAASGYTFTSYNMHWVRQAPGKGLEWVGAIYPGNGDTSYNQKFKGRFTISVDKSKNTLYLQMNSLRAEDTAVYYCARVVYYGGDWYFDVWGQGTLVTVSS
VL: DIQMTQSPSSLSASVGDRVTITCRASSSVSYMHWYQQKPGKAPKPLIYAPSNLASGVPSRFSGSGSGTDFTLTISSLQPEDFATYYCQQWSFNPPTFGQGTKVEIKR
notes: IgG1; changes relative to 2H7.v16; Y100b is deleted (written as a change to nothing); also called 2H7 version 166
